{
  "source": "paper PMC11560669",
  "about": "(Angewandte Chemie (International ed. in English), 2024)",
  "molecules": {"B1": {"name": "nanobody 2rs15d(D54Y) with the Arg mutation at G53 (VHH)", "VHH": "QVQLQESGGGSVQAGGSLKLTCAASGYIFNSCGMGWYRQSPGRERELVSRISRYGDTWHKESVKGRFTISQDNVKKTLYLQMNSLKPEDTAVYFCAVCYNLETYWGQGTQVTVSS"}, "B2": {"name": "nanobody 2rs15d(D54Y) with the Arg mutation at G55 (VHH)", "VHH": "B1 VHH with R53G, G55R"}, "B3": {"name": "nanobody 2rs15d(D54Y) with the Arg mutation at D56 (VHH)", "VHH": "B1 VHH with R53G, D56R"}},
  "key": {"[1]": {"biological_target": "extracellular domain (ECD) of human epidermal growth factor receptor 2 (HER2) (human) (UniProt P04626)", "assay": "cross-linking"}, "[2]": {"biological_target": "extracellular domain (ECD) of human epidermal growth factor receptor (EGFR) (human) (UniProt P00533)", "assay": "cross-linking"}, "[3]": {"biological_target": "extracellular domain (ECD) of human epidermal growth factor receptor 2 (HER2) (human) (UniProt P04626)", "assay": "cross-linking", "remark": "listed apart in the source"}, "[4]": {"biological_target": "extracellular domain (ECD) of human epidermal growth factor receptor 2 (HER2) (human) (UniProt P04626)", "assay": "cross-linking", "remark": "listed apart in the source"}, "MBP-Z(6Y)": {"biological_target": "MBP-Z(6Y)", "assay": "cross-linking"}, "MBP-Z(6H)": {"biological_target": "MBP-Z(6H)", "assay": "cross-linking"}, "MBP-Z(6K)": {"biological_target": "MBP-Z(6K)", "assay": "cross-linking"}, "[5]": {"biological_target": "extracellular domain (ECD) of human epidermal growth factor receptor 2 (HER2) (Homo sapiens, UniProt P04626)", "assay": "ELISA"}},
  "note": "Residue numbers refer to the chain shown, from its start. Numbers in names are those of the source. Read-outs that look alike come from different tables or passages of the source.",
  "data": [
    {"molecule": "nanobody 2rs15d(D54FSY) (VHH)", "values": [
      {"measurement": "kobs of cross-linking", "setting": "[1]", "value": 0.568, "unit": "h⁻¹"}
    ]},
    {"molecule": "covalent NK engager 7D12(Y109FSY/E44R)-C21 (bispecific antibody)", "values": [
      {"measurement": "fold change of kobs of cross-linking against 7D12(Y109FSY)-C21", "setting": "[2]", "value": 2.5, "unit": "fold"}
    ]},
    {"molecule": "nanobody 2rs15d(D54FSY/D56R) (VHH)", "values": [
      {"measurement": "kobs of cross-linking", "setting": "[1]", "value": 1.96, "unit": "h⁻¹"},
      {"measurement": "fold change of kobs of cross-linking against 2rs15d(D54FSY) at pH 6.0", "setting": "[3]", "value": 10.7, "unit": "fold"},
      {"measurement": "kobs of cross-linking", "setting": "[3]", "value": 0.705, "unit": "h⁻¹"},
      {"measurement": "fold change of kobs of cross-linking against 2rs15d(D54FSY) at pH 6.5", "setting": "[4]", "value": 6.6, "unit": "fold"},
      {"measurement": "kobs of cross-linking", "setting": "[4]", "value": 0.888, "unit": "h⁻¹"}
    ]},
    {"molecule": "nanobody 7D12(Y109FSY/E44R) (VHH)", "values": [
      {"measurement": "kobs of cross-linking", "setting": "[2]", "value": 0.342, "unit": "h⁻¹"}
    ]},
    {"molecule": "nanobody 7D12(Y109FFY/E44R) (VHH)", "values": [
      {"measurement": "kobs of cross-linking", "setting": "[2]", "value": 0.66, "unit": "h⁻¹"}
    ]},
    {"molecule": "nanobody 7D12(Y109mFSY/E44R) (VHH)", "values": [
      {"measurement": "fold change of kobs of cross-linking against 7D12(Y109mFSY)", "setting": "[2]", "value": 1.9, "unit": "fold"}
    ]},
    {"molecule": "Zspa affibody Afb(36FSY/F32R) (designed binder)", "values": [
      {"measurement": "fold change of cross-linking rate against Afb(36FSY)", "setting": "MBP-Z(6Y)", "value": 10.5, "unit": "fold"},
      {"measurement": "fold change of cross-linking yield at 16 h against Afb(36FSY)", "setting": "MBP-Z(6Y)", "value": 7.9, "unit": "fold"},
      {"measurement": "fold change of cross-linking rate against Afb(36FSY)", "setting": "MBP-Z(6H)", "value": 3.7, "unit": "fold"},
      {"measurement": "fold change of cross-linking yield at 16 h against Afb(36FSY)", "setting": "MBP-Z(6H)", "value": 2.9, "unit": "fold"},
      {"measurement": "fold change of cross-linking rate against Afb(36FSY)", "setting": "MBP-Z(6K)", "value": 3.4, "unit": "fold"},
      {"measurement": "fold change of cross-linking yield at 16 h against Afb(36FSY)", "setting": "MBP-Z(6K)", "value": 2.3, "unit": "fold"}
    ]},
    {"molecule": "Zspa affibody Afb(36PFY/F32R) (designed binder)", "values": [
      {"measurement": "kobs of cross-linking", "setting": "MBP-Z(6Y)", "value": 0.0218, "unit": "h⁻¹"},
      {"measurement": "percent increase of the PFEx cross-linking rate against Afb(36PFY)", "setting": "MBP-Z(6H)", "value": 44, "unit": "%"}
    ]},
    {"molecule": "B1", "values": [
      {"measurement": "binding result", "setting": "[5]", "value": "binds"}
    ]},
    {"molecule": "B2", "values": [
      {"measurement": "binding result", "setting": "[5]", "value": "binds"}
    ]},
    {"molecule": "B3", "values": [
      {"measurement": "fold decrease of binding affinity against 2rs15d(D54Y)", "setting": "[5]", "value": 14, "unit": "fold"}
    ]}
  ]
}
